Data reported in patent US20120124686.

Target: T1, phiC31 integrase (phiC31o, mammalian codon-optimized) (Streptomyces phage phiC31) (UniProt Q9T221)
T1 sequence: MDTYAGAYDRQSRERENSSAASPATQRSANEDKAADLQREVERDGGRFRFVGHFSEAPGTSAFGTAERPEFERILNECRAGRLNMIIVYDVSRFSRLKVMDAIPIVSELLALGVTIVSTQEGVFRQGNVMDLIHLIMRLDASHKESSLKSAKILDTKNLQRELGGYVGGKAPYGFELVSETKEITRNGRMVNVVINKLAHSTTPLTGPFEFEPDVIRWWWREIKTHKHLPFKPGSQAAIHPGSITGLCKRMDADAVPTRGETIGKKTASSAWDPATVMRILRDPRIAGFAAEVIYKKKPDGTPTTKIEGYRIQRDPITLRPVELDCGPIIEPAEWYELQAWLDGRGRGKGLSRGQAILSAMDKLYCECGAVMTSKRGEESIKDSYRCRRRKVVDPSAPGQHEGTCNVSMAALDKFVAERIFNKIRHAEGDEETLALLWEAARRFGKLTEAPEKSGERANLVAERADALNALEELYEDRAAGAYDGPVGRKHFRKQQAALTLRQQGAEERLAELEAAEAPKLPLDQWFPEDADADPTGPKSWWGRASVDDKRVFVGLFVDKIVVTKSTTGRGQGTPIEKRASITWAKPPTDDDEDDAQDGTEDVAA
Assay: cell_activity

Substance | activity (% of F0 with site-specific integration) (attB plasmid pattB-pCA-GFP into H11P3NVphi, 10/64, 0/32 without integrase mRNA) | activity (% of F0 with site-specific integration) (H11P(NVphi), mixed background, pooled 8/102, partner attB, mouse zygote injection)
full-length phiC31 attB (pTA-attB) | 15.6 | 
full-length phiC31 attP (pTA-attP) |  | 7.8
